Experimental data from publication PMC9712689 (Communications Biology, 2022).

B1: RlpA-Δ81 (domain or fragment)
chain: YTVLGKTYYPMNDARAYRMVGTASWYGTKFHGQATANGETYDLYGMTAAHKTLPLPSYVRVTNLDNGKSVIVRVNDRGPFYSDRVIDLSFAAAKKLGYAETGTARVKVEGIDPVQWWAQRGRPAPMVLAQPKQAVAQAAPAAAQTQAVAMAQPIETYTPPPAQHAAAVLPVQIDSKKNASLPADGLYLQVGAFANPDAAELLKAKLSGVTAAPVFISSVVRNQQILHRVRLGPIGSADEVSRTQDSIRVANLGQPTLVRPD
notes: source: E. coli BL21-star (DE3), purified (Ni-NTA)
B2: PA4063 (natural protein)
chain: HDDHDHDHAHGSLGKHEHGVAQLNVALDGKTLELELDSPAMNLVGFEHAASTDADKAAVAKARAQLEKPLELFALPVTAGCSVASQELRSPLFGDKAPAHAHKEKAGHEHEHEHEHEHGHADIHAHYQLSCEKPELLKLLTLAEFFKRFPATQKIQVQLIGPDGQKGADLAPASAELKL
notes: source: E. coli, purified (Ni-NTA or Strep-Tactin)
B3: PilO (natural protein)
chain: YNFHLSDMQAQLEQQAAEEETLKQQFSTKAFQAANLEAYKAQMKEMEESFGALLRQLPSDTEVPGLLEDITRTGLGSGLEFEEIKLLPEVAQQFYIELPIQISVVGGYHDLATFVSGVSSLPRIVTLHDFEIKPVAPGSTSKLRMSILAKTYRYNDKGLKK
notes: as for B2
B4: PA2854 (natural protein)
chain: LELQLPPPGEDVVGQVQVIKAKYEDTFADLGEQYNLGYSEMVAANPGVDPWLPGVGTEVIIPTRFVLPPGPREGVVINLAEYRLYYYPKGQNVVHTYPLGIGREGWGSPIANTRITAKTKDPAWYPPASIRAEHAADGDPLPTVVPPGPDNPLGPYKLTLGVPGYLIHGSNKKFGIGTRTSHGCFRMYNADVTHLFSMISVGTSVRIINEPYKFGVSNGKVYLEAHTPLNDHGDPSVVDKHTAVINTLLKRDDLAKRIQLNWDVVREVVASEDGVPVEIAQESAPAMTATVDSDPTQLTP
notes: as for B2
B5: RlpA-Δ32·MltF2 complex (MST) (complex)
chain 1: PQQPARQAGISGPGDYSRPHRDGAPWWDVDVSRIPDAVPMPHNGSVKANPYTVLGKTYYPMNDARAYRMVGTASWYGTKFHGQATANGETYDLYGMTAAHKTLPLPSYVRVTNLDNGKSVIVRVNDRGPFYSDRVIDLSFAAAKKLGYAETGTARVKVEGIDPVQWWAQRGRPAPMVLAQPKQAVAQAAPAAAQTQAVAMAQPIETYTPPPAQHAAAVLPVQIDSKKNASLPADGLYLQVGAFANPDAAELLKAKLSGVTAAPVFISSVVRNQQILHRVRLGPIGSADEVSRTQDSIRVANLGQPTLVRPD
chain 2: RITGQPDNWHREQPETRDLASIRRAGVLKVLVNQSRNSSGEVKGEPIGVEYRRLRAFEQYLNSRSPSARNLTLKLIPKPKDQLLAALQRGEGDLVAPGELLPAHDGLQVSPSAPVRADVPLVLVARKGNRRYTRLEQLSGRTIPLPAGSAAEGAIELVNQRLAQRRMAPIRIEKLDASLAVEDVMEMVQAGILGFTVVEQPIAERWAKVLPKLRVDRHLVLDNRADMAWYVRRDASTLRATIDRFLADYRAPADQDVAFQRVYRRAYKVRNPLGAADRKRLEAVRPLLQRYARQSSMDWLALAAVAYKESHLNPKARGSGGASGLMQITPAAARSVGVGNVHDKDSNVLAASRYLTKIRKQFFSSKHLDERERLAFTLAAYNMGPERVQNLRTQARRRGLDPNRWFFQVERVAAEEIGMGVVSYVSSVNKYYLAYERERVRLEPGVRAKTATAQK
modifications: amine reactive RED-NHS dye

Key:
Details in all cases: both partners purified
[1] = biological target: B4; assay: SPR
[2] = biological target: T1, PBP1a (P. aeruginosa PAO1, UniProt Q07806 27-822); assay: SPR
T1 sequence (Q07806 27-822): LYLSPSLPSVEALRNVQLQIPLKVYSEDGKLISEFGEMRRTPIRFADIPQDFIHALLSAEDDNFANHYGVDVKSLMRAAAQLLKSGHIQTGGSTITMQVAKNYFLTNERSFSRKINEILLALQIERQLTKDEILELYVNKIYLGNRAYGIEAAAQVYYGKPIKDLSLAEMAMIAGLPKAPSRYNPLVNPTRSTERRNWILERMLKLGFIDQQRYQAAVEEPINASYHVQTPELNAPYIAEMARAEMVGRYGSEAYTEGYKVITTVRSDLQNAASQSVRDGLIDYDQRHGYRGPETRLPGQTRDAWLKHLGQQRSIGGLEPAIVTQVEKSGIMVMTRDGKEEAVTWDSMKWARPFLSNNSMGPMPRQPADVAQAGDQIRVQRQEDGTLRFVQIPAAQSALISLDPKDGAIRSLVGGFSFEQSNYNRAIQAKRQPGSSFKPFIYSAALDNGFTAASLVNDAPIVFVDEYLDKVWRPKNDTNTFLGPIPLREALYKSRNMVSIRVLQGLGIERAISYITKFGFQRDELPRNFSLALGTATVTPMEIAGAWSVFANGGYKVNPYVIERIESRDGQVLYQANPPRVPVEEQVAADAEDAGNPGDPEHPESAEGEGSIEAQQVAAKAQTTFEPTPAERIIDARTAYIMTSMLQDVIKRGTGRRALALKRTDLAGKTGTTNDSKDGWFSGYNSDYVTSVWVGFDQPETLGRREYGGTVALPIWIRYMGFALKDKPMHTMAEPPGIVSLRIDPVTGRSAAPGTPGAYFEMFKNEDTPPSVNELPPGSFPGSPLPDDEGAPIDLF

[3] = biological target: T2, MltD (P. aeruginosa PAO1, UniProt Q9I2T2 1-534); assay: SPR
T2 sequence (looked up): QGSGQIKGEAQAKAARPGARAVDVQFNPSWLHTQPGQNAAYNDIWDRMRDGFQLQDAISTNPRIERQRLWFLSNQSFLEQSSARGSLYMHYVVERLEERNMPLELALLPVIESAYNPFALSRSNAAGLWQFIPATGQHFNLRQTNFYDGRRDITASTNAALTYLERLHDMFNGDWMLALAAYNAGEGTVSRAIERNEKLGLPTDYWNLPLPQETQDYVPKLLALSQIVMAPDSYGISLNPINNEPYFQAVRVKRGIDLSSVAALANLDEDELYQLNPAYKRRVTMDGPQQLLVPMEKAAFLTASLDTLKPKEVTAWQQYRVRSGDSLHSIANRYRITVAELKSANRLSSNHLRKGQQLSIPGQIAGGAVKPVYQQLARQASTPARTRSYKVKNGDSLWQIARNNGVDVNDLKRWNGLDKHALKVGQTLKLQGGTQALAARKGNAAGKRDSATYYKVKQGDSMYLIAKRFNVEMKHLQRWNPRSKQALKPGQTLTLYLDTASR

[4] = biological target: T3, TypA (P. aeruginosa PAO1, UniProt Q9HU67 1-605); assay: SPR
T3 sequence (looked up): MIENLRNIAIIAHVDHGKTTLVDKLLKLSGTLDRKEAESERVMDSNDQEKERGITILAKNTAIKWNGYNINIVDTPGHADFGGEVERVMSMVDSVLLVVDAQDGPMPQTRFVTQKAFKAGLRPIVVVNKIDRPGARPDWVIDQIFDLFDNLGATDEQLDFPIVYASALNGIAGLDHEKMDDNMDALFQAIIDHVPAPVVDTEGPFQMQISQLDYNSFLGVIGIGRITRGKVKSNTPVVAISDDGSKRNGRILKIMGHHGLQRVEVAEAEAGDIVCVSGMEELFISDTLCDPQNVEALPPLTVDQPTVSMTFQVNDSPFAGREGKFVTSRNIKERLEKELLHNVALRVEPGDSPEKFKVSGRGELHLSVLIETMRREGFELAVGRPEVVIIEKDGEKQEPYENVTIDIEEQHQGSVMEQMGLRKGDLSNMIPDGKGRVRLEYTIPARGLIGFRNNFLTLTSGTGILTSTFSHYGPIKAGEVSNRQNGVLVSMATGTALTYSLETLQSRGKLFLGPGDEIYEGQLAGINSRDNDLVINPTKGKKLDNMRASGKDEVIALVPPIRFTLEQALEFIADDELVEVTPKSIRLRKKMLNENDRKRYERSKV

[5] = biological target: T4, MltF2 (P. aeruginosa PAO1, UniProt Q9HZY1 1-476); assay: SPR
T4 sequence (looked up): B5 chain 2

[6] = biological target: T5, RlpA-Δ32, fluorescently labeled (P. aeruginosa PAO1, UniProt Q9X6V6 32-342, amine reactive RED-NHS dye); assay: MST
T5 construct: source: E. coli BL21-star (DE3), purified (Ni-NTA), labelled with RED-NHS dye
T5 sequence: B5 chain 1

[7] = biological target: B5; assay: MST
[8] = biological target: T6, RlpA-Δ32 (P. aeruginosa PAO1, UniProt Q9X6V6 32-342); assay: SPR
T6 construct: source: E. coli BL21-star (DE3), purified (Ni-NTA)
T6 sequence: B5 chain 1

[9] = biological target: B1; assay: SPR
[10] = biological target: T1, PBP1a; assay: MST

Binder	Kd [6]	Kd [7]	Kd [8]	koff [8]	kon [8]	Kd [9]	koff [9]	kon [9]	further results
B1	–	–	–	–	–	–	–	–	Kd [1]: 2270 nM; koff [1]: 0.00075 s⁻¹; kon [1]: 330 M⁻¹ s⁻¹; Kd [2]: 94 nM; koff [2]: 0.00177 s⁻¹; kon [2]: 18800 M⁻¹ s⁻¹; Kd [3]: 56 nM; koff [3]: 0.0039 s⁻¹; kon [3]: 69000 M⁻¹ s⁻¹; Kd [4]: 74 nM; koff [4]: 0.00047 s⁻¹; kon [4]: 6400 M⁻¹ s⁻¹; Kd [5]: 3 nM; koff [5]: 4e-05 s⁻¹; kon [5]: 14900 M⁻¹ s⁻¹
B2	201 nM	105 nM	810 nM	0.00145 s⁻¹	1800 M⁻¹ s⁻¹	1080 nM	0.00194 s⁻¹	1800 M⁻¹ s⁻¹	–
B3	350 nM	208 nM	3130 nM	0.00275 s⁻¹	880 M⁻¹ s⁻¹	1010 nM	0.00076 s⁻¹	750 M⁻¹ s⁻¹	–
B4	58 nM	55 nM	65 nM	0.00032 s⁻¹	4900 M⁻¹ s⁻¹	–	–	–	–
B5	–	–	–	–	–	–	–	–	Kd [10]: 45 nM
